B1: Hammerhead Ribozyme (parent)
chain: ACCGGAUGUGCUUUCCGGUCUGAUGAGUCCGUGAGGACGAAACAG

Variants of B1 are the subject of this data set. As to the kind of experiment: self-cleavage, relative activity (ratio to wild type); higher = more cleavage; co-transcriptional.
Turning to C15A A34C, the self-cleavage worked out at 1.09.

Regarding C15A A34G, the self-cleavage came to 0.96.

In the case of C15A A34U, the self-cleavage came out at 0.879.

For the variant C16A C29G, the self-cleavage stood at 0.566.

With C16A C29A, the self-cleavage turned out to be 0.417.

On to C16A C29U, for which the self-cleavage is 1.06.

For the variant C15U G27U, the self-cleavage is 0.579.

As to C15U G27A, the self-cleavage was 0.687.

C15U G27C: the self-cleavage amounted to 0.749.

With C15A G39U, the self-cleavage was determined as 0.353.

For the variant C15A G39A, the self-cleavage was determined as 0.337.

On to C15A G39C, for which the self-cleavage was determined as 0.366.

With C15A U21G, the self-cleavage is 0.404.

C15A U21A: the self-cleavage came out at 0.415.

In the case of C15A U21C, the self-cleavage turned out to be 0.373.

For the variant C16A C20U, the self-cleavage amounted to 0.567.

C16A C20G: the self-cleavage was determined as 0.316.

For the variant C16A C20A, the self-cleavage was found to be 0.474.

C15U C16G: the self-cleavage came to 0.708.

With C15U C16A, the self-cleavage turned out to be 0.76.

Consider C15U C16U, for which the self-cleavage amounted to 0.776.

Take C15A C30U: the self-cleavage was 1.01.

For C15A C30A, the self-cleavage was determined as 0.782.

For C15A C30G, the self-cleavage is 0.557.

On to C15U A26U, for which the self-cleavage is 0.752.

For C15U A26C, the self-cleavage worked out at 0.424.

For the variant C15U A26G, the self-cleavage came to 0.313.

Consider C15A C16A, for which the self-cleavage is 0.869.

On to C15A C16G, for which the self-cleavage came out at 0.521.

For the variant C15A C16U, the self-cleavage was found to be 0.647.

In the case of C15U G33C, the self-cleavage was determined as 0.847.

C15U G33U: the self-cleavage is 1.02.

With C15U G33A, the self-cleavage worked out at 0.875.

Regarding C15U U24A, the self-cleavage amounted to 0.853.

Take C15U U24C: the self-cleavage stood at 0.812.

On to C15U U24G, for which the self-cleavage worked out at 1.35.

For the variant C15A A41U, the self-cleavage was 0.287.

Regarding C15A A41C, the self-cleavage was found to be 0.338.

Consider C15A A41G, for which the self-cleavage was found to be 0.325.

With U14G U32C, the self-cleavage came to 0.653.

Consider U14G U32A, for which the self-cleavage worked out at 0.811.

In the case of U14G U32G, the self-cleavage stood at 1.01.

Regarding C15A A26G, the self-cleavage came out at 0.248.

For the variant C15A A26U, the self-cleavage came out at 0.446.

Regarding C15A A26C, the self-cleavage is 0.437.

Turning to C16A A41U, the self-cleavage stood at 0.37.

As for C16A A41C, the self-cleavage came out at 0.404.

C16A A41G: the self-cleavage came out at 0.352.

With C16A G22C, the self-cleavage is 0.294.

Regarding C16A G22U, the self-cleavage turned out to be 0.329.

With C16A G22A, the self-cleavage turned out to be 0.299.

As for C15A G33U, the self-cleavage came to 0.893.

Turning to C15A G33A, the self-cleavage stood at 0.921.

For the variant C15A G33C, the self-cleavage worked out at 0.953.

As to C15G A40G, the self-cleavage worked out at 0.42.

As to C15G A40U, the self-cleavage was found to be 0.358.

Regarding C15G A40C, the self-cleavage turned out to be 0.326.

On to C15A A37U, for which the self-cleavage stood at 0.434.

Turning to C15A A37G, the self-cleavage worked out at 0.895.

As to C15A A37C, the self-cleavage was determined as 0.403.

For C15U C38G, the self-cleavage was 0.689.

Consider C15U C38U, for which the self-cleavage was 0.82.

With C15U C38A, the self-cleavage came to 0.677.

As to C16A G25A, the self-cleavage is 0.347.

Take C16A G25C: the self-cleavage turned out to be 0.372.

As for C15A A23G, the self-cleavage was determined as 0.428.

Take C15A A23C: the self-cleavage came to 0.307.

As to C15A A23U, the self-cleavage was 0.276.

Turning to C15G G45U, the self-cleavage turned out to be 0.421.

Consider C15G G45C, for which the self-cleavage was 0.379.

Regarding C15G G45A, the self-cleavage turned out to be 0.446.

Take C15G G22C: the self-cleavage stood at 0.331.

Regarding C15G G22U, the self-cleavage amounted to 0.352.

In the case of C15G G22A, the self-cleavage was found to be 0.376.

Regarding C15U C20A, the self-cleavage is 0.511.

On to C15U C20G, for which the self-cleavage came to 0.387.

Consider C15U C20U, for which the self-cleavage was found to be 0.627.

For C15G A42G, the self-cleavage is 0.276.

C15G A42C: the self-cleavage was found to be 0.277.

As for C15G A42U, the self-cleavage stood at 0.328.

C15A C20U: the self-cleavage came to 0.438.

Turning to C15A C20A, the self-cleavage came out at 0.316.

Take C15A C20G: the self-cleavage came out at 0.289.

Take C16A A44G: the self-cleavage stood at 1.35.

Consider C16A A44C, for which the self-cleavage stood at 0.563.

Take C16A A44U: the self-cleavage amounted to 0.5.

Consider C15G C43G, for which the self-cleavage came out at 0.327.

For C15G C43U, the self-cleavage is 0.248.

C15G C43A: the self-cleavage turned out to be 0.262.

For C15G G36A, the self-cleavage is 0.417.

As for C15G G36U, the self-cleavage was determined as 0.374.

With C15G G36C, the self-cleavage is 0.284.

As for C15A U19A, the self-cleavage was found to be 0.365.

C15A U19C: the self-cleavage was 0.366.

Turning to C15A U19G, the self-cleavage amounted to 0.34.

As to C15U G22C, the self-cleavage came out at 0.288.

On to C15U G22A, for which the self-cleavage amounted to 0.288.

In the case of C15U G22U, the self-cleavage came out at 0.386.

For C15A U24C, the self-cleavage was found to be 0.892.

Regarding C15A U24G, the self-cleavage came to 0.743.

In the case of C15A U24A, the self-cleavage is 0.875.

In the case of C15U A41C, the self-cleavage turned out to be 0.368.

In the case of C15U A41U, the self-cleavage came out at 0.352.

For the variant C15U A41G, the self-cleavage came to 0.355.

With C16A A40U, the self-cleavage was determined as 0.284.

As to C16A A40C, the self-cleavage was found to be 0.402.

Regarding C16A A40G, the self-cleavage was determined as 0.297.

For the variant C15U G35U, the self-cleavage stood at 0.701.

As to C15U G35A, the self-cleavage came out at 0.756.

In the case of C15U G35C, the self-cleavage came out at 0.601.

As to C15A G22C, the self-cleavage turned out to be 0.3.

Take C15A G22A: the self-cleavage amounted to 0.34.

Turning to C15A G22U, the self-cleavage was 0.303.

Regarding C15G A23U, the self-cleavage worked out at 0.303.

Regarding C15G A23C, the self-cleavage was 0.301.

Take C15G A23G: the self-cleavage was 0.32.

Take C15G C38G: the self-cleavage came to 0.386.

C15G C38A: the self-cleavage came to 0.446.

With C15G C38U, the self-cleavage was found to be 0.633.

Consider C15A G18A, for which the self-cleavage was found to be 0.323.

As to C15A G18C, the self-cleavage was 0.364.

C15A G18U: the self-cleavage was 0.33.

C15G U19A: the self-cleavage worked out at 0.336.

Consider C15G U19C, for which the self-cleavage was found to be 0.232.

With C15G U19G, the self-cleavage is 0.382.

With C15U G17C, the self-cleavage is 0.399.

As to C15U G17A, the self-cleavage was 0.556.

C15U G17U: the self-cleavage is 0.476.

Regarding C15A G45U, the self-cleavage was determined as 0.467.

In the case of C15A G45C, the self-cleavage is 0.44.

Consider C15A G45A, for which the self-cleavage amounted to 0.498.

For the variant C15U C29G, the self-cleavage worked out at 0.802.

Consider C15U C29A, for which the self-cleavage is 0.686.

In the case of C15U C29U, the self-cleavage was found to be 0.808.

With C15G A37U, the self-cleavage was 0.367.

Take C15G A37C: the self-cleavage was found to be 0.364.

As to C15G A37G, the self-cleavage worked out at 0.535.

For C15G G18C, the self-cleavage came to 0.353.

Regarding C15G G18A, the self-cleavage came out at 0.378.

As for C15G G18U, the self-cleavage is 0.293.

As to C15A G25A, the self-cleavage is 0.341.

As for C15A G25U, the self-cleavage was 0.339.

Take C15A G25C: the self-cleavage turned out to be 0.381.

Consider C15G G39U, for which the self-cleavage worked out at 0.301.

With C15G G39C, the self-cleavage was found to be 0.275.

Consider C15G G39A, for which the self-cleavage worked out at 0.327.

With C15A A40G, the self-cleavage stood at 0.415.

As for C15A A40C, the self-cleavage is 0.361.

For C15A A40U, the self-cleavage turned out to be 0.394.

For C15A C29G, the self-cleavage was found to be 0.486.

For the variant C15A C29U, the self-cleavage amounted to 0.753.

In the case of C15A C29A, the self-cleavage was found to be 0.457.

C15U G31U: the self-cleavage is 0.881.

For C15U G31A, the self-cleavage is 0.781.

With C15U G31C, the self-cleavage was 0.967.

In the case of C15G A41C, the self-cleavage amounted to 0.398.

On to C15G A41G, for which the self-cleavage was 0.431.

In the case of C15G A41U, the self-cleavage was 0.307.

For C15G A34G, the self-cleavage is 0.833.

C15G A34U: the self-cleavage was 0.904.

With C15G A34C, the self-cleavage was 0.671.

On to C15G G25C, for which the self-cleavage worked out at 0.262.

Regarding C15G G25U, the self-cleavage is 0.315.

C15G G25A: the self-cleavage stood at 0.348.

In the case of C15G C30G, the self-cleavage is 0.618.

For C15G C30A, the self-cleavage was determined as 0.653.

C15G C30U: the self-cleavage was determined as 0.722.

For the origin of these results see the RNAGym collection of RNA variant scans (doi:10.7554/elife.80360).
